Measurements taken from article PMC3526519, “Rationally re-designed mutation of NAD-independent L-lactate dehydrogenase: high optical resolution of racemic mandelic acid by the engineered Escherichia coli” (Microbial Cell Factories, 2012).

Columns and labels:
[1] = biological target: T1, L-iLDH (NAD-independent L-lactate dehydrogenase) (Stutzerimonas stutzeri, UniProt I1SLB1, V108A); experiment: DCIP reduction at […] nm, double-reciprocal plots; format: biochemical; conditions: competitive versus L-mandelate; 0.0625 mM DCIP, 50 mM Tris-HCl pH 7.5, 30 °C
T1 construct: gene lldD; membrane flavoprotein; wild-type prepared as in earlier report
T1 sequence (I1SLB1 1-391 V108A): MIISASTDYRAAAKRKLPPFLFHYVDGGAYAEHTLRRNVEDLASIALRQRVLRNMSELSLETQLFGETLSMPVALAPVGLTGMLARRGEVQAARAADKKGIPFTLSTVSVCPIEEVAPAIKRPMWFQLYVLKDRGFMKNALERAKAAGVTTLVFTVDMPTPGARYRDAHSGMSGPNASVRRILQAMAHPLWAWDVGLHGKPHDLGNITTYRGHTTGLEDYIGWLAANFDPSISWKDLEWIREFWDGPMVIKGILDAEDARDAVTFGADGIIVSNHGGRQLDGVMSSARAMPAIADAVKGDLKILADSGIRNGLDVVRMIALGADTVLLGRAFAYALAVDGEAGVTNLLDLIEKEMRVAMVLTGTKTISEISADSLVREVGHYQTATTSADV

O=C(O)[C@@H](O)c1ccccc1 = tested on: T2, O=C(O)[C@@H](O)c1ccccc1; experiment: purified protein; format: biochemical, Stutzerimonas stutzeri; conditions: 0.0625 mM DCIP as electron acceptor, 50 mM Tris-HCl pH 7.5, 30 °C
T2 construct: membrane flavoprotein; wild-type prepared as in earlier report

C[C@H](O)C(=O)O = tested on: T3, C[C@H](O)C(=O)O; experiment: purified protein; format: biochemical, Stutzerimonas stutzeri; conditions: 0.0625 mM DCIP as electron acceptor, 50 mM Tris-HCl pH 7.5, 30 °C
T3 construct: membrane flavoprotein; wild-type prepared as in earlier report

purified protein [2] = substrate: O=C(O)[C@@H](O)c1ccccc1; experiment: purified protein; format: biochemical, Stutzerimonas stutzeri; conditions: 0.0625 mM DCIP as electron acceptor, 50 mM Tris-HCl pH 7.5, 30 °C
purified protein [3] = substrate: C[C@H](O)C(=O)O; experiment: purified protein; format: biochemical, Stutzerimonas stutzeri; conditions: 0.0625 mM DCIP as electron acceptor, 50 mM Tris-HCl pH 7.5, 30 °C

Work on `O=C(O)[C@H](O)c1ccccc1` [D-mandelate] yielded a Ki [1] of 5.5 ± 0.5 mM.

With “L-iLDH (NAD-independent L-lactate dehydrogenase) (Stutzerimonas stutzeri; V108A)” the Km (O=C(O)[C@@H](O)c1ccccc1) was 1600 ± 100 µM, the kcat (O=C(O)[C@@H](O)c1ccccc1) was 97 ± 13 s⁻¹ and the kcat/Km (O=C(O)[C@@H](O)c1ccccc1) was 61000 M⁻¹ s⁻¹. It also gave a Km (C[C@H](O)C(=O)O) of 800 ± 100 µM, a kcat (C[C@H](O)C(=O)O) of 185 ± 36 s⁻¹ and a kcat/Km (C[C@H](O)C(=O)O) of 231000 M⁻¹ s⁻¹.

B1: L-iLDH (NAD-independent L-lactate dehydrogenase) (Stutzerimonas stutzeri) (protein)
chain: MIISASTDYRAAAKRKLPPFLFHYVDGGAYAEHTLRRNVEDLASIALRQRVLRNMSELSLETQLFGETLSMPVALAPVGLTGMLARRGEVQAARAADKKGIPFTLSTVSVCPIEEVAPAIKRPMWFQLYVLKDRGFMKNALERAKAAGVTTLVFTVDMPTPGARYRDAHSGMSGPNASVRRILQAMAHPLWAWDVGLHGKPHDLGNITTYRGHTTGLEDYIGWLAANFDPSISWKDLEWIREFWDGPMVIKGILDAEDARDAVTFGADGIIVSNHGGRQLDGVMSSARAMPAIADAVKGDLKILADSGIRNGLDVVRMIALGADTVLLGRAFAYALAVDGEAGVTNLLDLIEKEMRVAMVLTGTKTISEISADSLVREVGHYQTATTSADV
notes: membrane flavoprotein; wild-type prepared as in earlier report
In the case of B1, the Km (purified protein [2]) is reported as 6800 ± 1000 µM, the kcat (purified protein [2]) is reported as 8.3 ± 1.3 s⁻¹ and the kcat/Km (purified protein [2]) is reported as 1200 M⁻¹ s⁻¹. The Km (purified protein [3]) was 180 ± 10 µM, the kcat (purified protein [3]) was 445 ± 44 s⁻¹ and the kcat/Km (purified protein [3]) was 2.47e+06 M⁻¹ s⁻¹.
